Results from paper PMC9876794 (2022).

How the values were obtained:
[1] = biological target: T1, SARS-CoV-2 spike RBD (WT) (Severe acute respiratory syndrome …, UniProt P0DTC2); experiment: BLI
[2] = biological target: T1, SARS-CoV-2 spike RBD (WT); experiment: ELISA; set-up: unit not given here

Binder | Kd [1] | binding score [2]
D006 (antibody, V domains shown) VH: EVQLVQSGAEVKKPGESLKISCKGSGYSFTSYWIGWVRQMPGKGLEWMGIIYPGDSDTRYSPSFQGQVTISADKSISTAYLQWSSLKASDTAMYYCASFGRNDAFDIWGQGTMVTVSS VL: not shown | 8.76 nM | 41.6
C2708 (antibody, V domains shown) VH: EVQLVESGGVVVQPGGSLRLSCAASGFTFDDYAMHWVRQAPGKGLEWVSLISWDGGSTYYADSVKGRFTISRDNSKNSLYLQMNSLRAEDTALYYCAKDIEGGSGWSFDYWGQGTLVTVSS VL: QSALTQPPSVSGSPGQSVTISCTGTSSDVGSYNRVSWYQQPPGTAPKLMIYEVSNRPSGVPDRFSGSKSGNTASLTISGLQAEDEADYYCSSYTSSSTVVFGGGTKLTVL | 597 nM | 7040
D008 (antibody, V domains shown) VH: QVQLVESGGGVVQPGRSLRLSCAASGFTFRSYGMHWVRQAPGKGLEWVAVISYDGSTKYYADSVKGRFTISRDNSKNTLYLQMNSLRAEDTAVYYCAKGGYYYDSNTYYVYWGQGTLVTVSS VL: DIQMTQSPSSLSASVGDRVTITCQASQDISNHLNWYQQKPGKAPKLLIYDASNLETGVPSRFSGSGSGTDFTFTISSLQPEDIATYYCQQYDNLPPITFGQGTRLEIK | 10.5 nM | 12.4
C2728 (antibody, V domains shown) VH: QVQLVESGGGVVQPGRSLRLSCAASGFTFSSYGMHWVRQAPGKGLEWVAVIWYDGSNKYYADSVKGRFTISRDNSKNTLYLQMNSLRAEDTAVYYCARERPHPSITMIVPNNYGMDVWGQGTTVTVSS VL: not shown | 536 nM | 132
D048 (antibody, V domains shown) VH: QLQLQESGPGLVKPSETLSLTCTVSGGSISSSSYYWGWIRQPPGKGLELIGTIYYSGSTYYNPSLKSRVTISVDTSKNQFSLKLSSVTAADTAVYYCARKGPYYYDRSGYYRPGPIDYWGQGTLVTVSS VL: not shown | 23.4 nM | 4.6
D045 (antibody, V domains shown) VH: EVQLVESGGGLVQPGGSLRLSCAASGFTFSSYSMNWVRQAPGKGLEWVSYISSSSSTIYYADSVKGRFTISRDNAKNSLYLQMNSLRDEDTAVYYCARHYGSGSSYYYYGMDVWGQGTTVTVSS VL: not shown | 61.1 nM | 15.7
D124 (antibody, V domains shown) VH: QVQLQQWGAGLLKPSETLSLTCAVYGGPFTGYSWTWIRQSPGKGLEWIGEINHSGSTSYNPSLQSRVTFSIDTSKNQFSLELSSVTAADTAVYFCARGNRNRYHTSDWYYYGMDVWGQGTTVTVSS VL: DIQMTQSPSSLSAYVGDRVTITCRASQGINTYLAWYQQKPGKVPRLLIYGASTLQSGVPSRFSGSGSGTEFTLTISSLQPEDIATYYCQKYNSAPRTFGQGTKVEIK | 219 nM | 2540
C2723 (antibody, V domains shown) VH: QVQLQESGPGLVKPSETLSLTCTVSGGSVSSGSYYWSWIRQPPGKGLEWIGYIYYSGSTNYNPSLKSRVTISVDTSKNQFSLKLSSVTAADTAVYYCARGALYDSSGYYPELPVYWGQGTLVTVSS VL: not shown | 20.9 nM | 39.7
D025 (antibody, V domains shown) VH: QVQLVESGGGVVQPGRSLRLSCAASGFTFSSYGMHWVRQAPGKGLEWVAVISYDGSNKYYADSVKGRFTISRDNSKNTLYLQMNSLRAEDTAVYYCAKRGQGYCGGDCFSGYFDYWGQGTLVTVSS VL: not shown | 172 nM | > 10000
D144 (antibody, V domains shown) VH: EVQLVESGGGLVQPGGSLRLSCAASGFTFSSYWMHWVRQAPGKGLVWVSRINSDGSSTSYADSVKGRFTISRDNAKNTLYLQMNSLRAEDTAVYYCARVPDTAMVTGINYYYYYGMDVWGQGTTVTVSS VL: not shown | 19.2 nM | 24.8
C2709 (antibody, V domains shown) VH: EVQLVESGGGLVQPGGSLRLSCAASGFTVSSNYMSWVRQAPGKGLEWVSVIYSGGSTYYADSVKGRFTISRDNSKNTLYLQMNSLRAEDTAVYYCARDNEHYGSGSLTLDYWGQGTLVTVSS VL: not shown | 115 nM | 5050
C2705 (antibody, V domains shown) VH: EVQLVQSGAEVKKPGESLKISCKGSGYSFTSYWIGWVRQMPGKGLEWMGIIYPGDSDTRYSPSFQGQVTISADKSISTAYLQWSSLKASDTAMYYCARPVVTDYWYFDLWGRGTLVTVSS VL: not shown | 14 nM | 867
D066 (antibody, V domains shown) VH: QVQLVQSGAEVKKPGASVKVSCKASEYTFTNYYMHWVRQAPGQGLEWMGIINPSAGSTSYAQKFQGRVRMTSDTSTNTVYMELSSLRSEDTAVYYCARGVLVPAAEYYFDYWGQGTLVTVSS VL: not shown | 7.6 nM | 11.9
D063 (antibody, V domains shown) VH: EVQLVQSGAEVKKPGESLKISCKGSGYSFTSYWIGWVRQMPGKGLEWMGIIYPGDSDTSPSFQGQVTISADKSISTAYLQWSSLKASDTAMYYCARVLNWNLGDYWGQGTLVTVSS VL: not shown | 94.8 nM | 9040
D146 (antibody, V domains shown) VH: QVQLVESGGGVVQPGRSLRLSCAASGFTFSSYGMHWVRQAPGKGLEWVAVISYDGSNKYYADSVKGRFTISRDNSKNTLYLQMNSLRAEDTAVYYCAKSLGSYCSSTSCYGGSFDYWGQGTLVTVSS VL: not shown | 98.1 nM | 574
D013 (antibody, V domains shown) VH: QVQLVQSGAEVKKPGASVRISCKTSGYIFAYYFIHWFRQAPGQGPEWMGWINPKSGGTNYAQKFQDRVTMTTDSSITTAFMALRSLRSDDTAVYYCTREGVGTISDAGFGYWGQGTPVTVSS VL: SYVLTQPPSVSVAPGKTATITCGGNNIGSKSVHWYHQKPGQAPVMVVYNDKERPSGIPERFSGSKSGNTATLTITWVEADDEADYYCQAWDRPSGYVFGTGTKVTVL | 338 nM | 1330
C2739 (antibody, V domains shown) VH: EVQLVESGGGLVQPGGSLRLSCAASGFTFSSYWMSWVRQAPGKGLEWVANIKKDGSEKYYVDSVKGRFTISRDNDKNSLYLQMNSLRAEDTAVYYCARKKYYYGDFDYWGQGTLVTVSS VL: NFMLTQPHSVSESPGKTVTISCTRSSGSIASNYVQWYQQRPGSSPTTVIYEDNQRPSGVPDRFSGSIDSSSNSASLTISGLKTEDEADYYCQSYDSIIREVFGGGTKLTVL | 287 nM | 52.3
C2704 (antibody, V domains shown) VH: EVQLVESGGDLVQPGGSLRLSCAASGFTFSTSWMHWVRQAPGKGLVWVSHINGDGSTTIYADSVKGRFTISRDNAKNTLYLQMNTLRAEDTAVYYCARNTGTHFDYWGQGTLVTVSS VL: QSALTQPASVSGSPGQSITISCTGTSSDVGRYNYVSWYQQHPGKAPKVMIYDVSNRPSGVSNRFSGSKSGNTASLTISGLQAEDEADYYCSSYTSSSPWVFGGGTKLTVL | 205 nM | 410
D041 (antibody, V domains shown) VH: EVQLVQSGAEVKKPGESLKISCKGSGYSFTSYWIGWVRQMPGKGLEWMGIIYPGDSDTRYSPSFQGQVTISADKSISTAYLQWSSLKASDTAMYYCARHPTVTGWFDPWGQGTLVTVSS VL: not shown | 13.2 nM | 33
C2690 (antibody, V domains shown) VH: EVQLVESGGGVVQPGRSLRVSCAASGFTFSSYGMHWVRQAPGKGLEWVAVISYDGSNKYYADSVKGRFSISRDNSKNTLYLQMNSLRAEDTAVYYCAKVISSFGGGSLNYFDYWGQGTLVTVSS VL: AIRMTQSPSSLSASVGDRVTITCQASQDISNYLNWYQQKPGKAPKLLIYDASNLETGVPSRFSGSGSGTDFTFTISSLQPEDIATYYCQQYDNLPITFGQGTRLEIK | 103 nM | 381
D138 (antibody, V domains shown) VH: QVQLVESGGGVVQPGRSLRLSCAASGFTFSSYGMHWVRQAPGKGLEWVAVISYDGSNKYYADSVKGRFTISRDNSKNTLYLQMNSLRAEDTAVYYCAKRAPYYYGPGGIDYWGQGTLVTVSS VL: not shown | 201 nM | 368
C2716 (antibody, V domains shown) VH: EVQLVESGGGLIQPGGSLRLSCAASGFIVSSNYMSWVRQAPGKGLEWVSVIYSGGSTYYADSVKGRFTISRDNSKNTLYLQMNSLRAEDTAVYYCARDLGSYGHFDYWGQGTLVTVSS VL: not shown | 370 nM | 1100
D125 (antibody, V domains shown) VH: QVQLQESGPGLVKPSETLSLTCSVSGVSISSYYWSWIRQPPGKGLEWIGYIYYSGSTNYNPSLKSRVTISVDTSKNQFSLKLSSVTAADTAVYYCARVVGDGYNFGYYYYMDVWGKGTTVTVSS VL: QSVLTQPPSVSAAPGQKVTISCSGSSSNIGNNYVSWYQQLPGTAPKLLIYENNKRPSGIPDRFSGSKSGTSATLGITGLQTGDEADYYCGTWDSSLSAYVFGTGTKVTVL | 103 nM | 575
D067 (antibody, V domains shown) VH: EVQLVESGGGLVQPGGSLRLSCAASGFIFSGYDMHWVRQAPGKGLEWVSAIGTAGDTYYPGSVKGRFILSRENAKNSLYLQMNSLRAGDTAVYYCARALYRFGELLGYDYWGQGTLVTVSS VL: not shown | 183 nM | 352
D068 (antibody, V domains shown) VH: EVQLVESGGGLVKPGGSLRLSCAASGFTFSSYSMNWVRQAPGKGLEWVSSISSSSSYIYYADSVKGRFTISRDNAKNSLYLQMNSLRAEDTAVYYCARVDSSGWYTGDAFDIWGQGTMVTVSS VL: not shown | 196 nM | 286
D101 (antibody, V domains shown) VH: EVQLVESGGGLVQPGGSLRLSCAASGFTFSNYDMHWVRQATGKGLEWVSTIGTVGDTYYPGSVKGRFTISRENAKNSLYLQMNSLRAGDTAVYYCARGGGMTTVTLDVWGQGTTVTVSS VL: not shown | 46.9 nM | 8.93
